Results from US7378234.

Molecular target: soluble HLA-B*0702 (human)

SPGALVVGVI (modifications not checked) [Ipep 1838]
% competition: 30%
